According to paper PMC2646909:

Target: SOD1 G93A (untagged) (human, UniProt P00441 2-154, G94A)
Assay: competition

Sequence of SOD1 G93A (untagged) (P00441 2-154 G94A): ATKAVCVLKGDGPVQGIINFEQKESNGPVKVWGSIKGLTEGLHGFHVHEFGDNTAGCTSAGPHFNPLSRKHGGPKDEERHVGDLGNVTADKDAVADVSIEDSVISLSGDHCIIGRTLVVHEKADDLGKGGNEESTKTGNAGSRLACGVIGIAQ

## CGGAGCCCAGCCCUCCCCAUGGAGCCAGCUCCCUCU (ssRNA) [control RNA (no AU-rich sequence)]
  binding result: no binding
